Source: patent US20230272011A1 (AVACTA LIFE SCIENCES, published 2023)

Tests used:
rat serum albumin [1] = target: T1, rat serum albumin (rat, UniProt P02770 25-608); assay: binding ELISA on coated albumin, pH 6.0, panel 'Rat SA Binding at pH 6.0'
Description: (§1) Briefly, ELISA was performed as follow:
(§2) Human (Sigma-Aldrich); Cynomolgus and Mouse (Abcam); Equine (Abcam); Canine (Abcam); Mouse (Sigma-Aldrich); Rabbit (Sigma-Aldrich); Porcine (Sigma-Aldrich);, and Rat (Sigma-Aldrich) serum albumin were coated overnight on 96 well plates (Corning Costar) at 1 μg/ml in PBS at the appropriate pH (pH 6.0 or 7.4). Plates were saturated using 5% Casein (Sigma-Aldrich) buffer in PBS. […] Plates were then washed and AFFIMER® proteins were detected using a biotinylated polyclonal antibody anti-Cystatin (R&D System) for 90 minutes. After washing, streptavidin-HRP (Thermo Fisher Scientific) was added and incubated for 30 minutes.

canine serum albumin [2] = target: T2, canine serum albumin (canine, UniProt P49822 25-608); assay: binding ELISA on coated albumin, pH 6.0, panel 'Canine SA Binding at pH 6.0'
Description: as §1, §2

human serum albumin [3] = target: T3, human serum albumin (human, UniProt P02768 25-609); assay: binding ELISA on coated albumin, pH 6.0, panel 'HSA Binding at pH 6.0'
T3 construct: mature; Bought protein; biotinylated in the Octet and HTRF assays; also called HSA; HuSA
Description: as §1, §2

cynomolgus serum albumin [4] = target: T4, cynomolgus serum albumin (cynomolgus); assay: binding ELISA on coated albumin, pH 6.0, panel 'CSA Binding at pH 6.0'
T4 construct: also called CSA; cyno serum albumin
Description: as §1, §2

mouse serum albumin [5] = target: T5, mouse serum albumin (mouse, UniProt P07724 25-608); assay: binding ELISA on coated albumin, pH 6.0, panel 'MSA Binding at pH 6.0'
T5 construct: also called MSA
Description: as §1, §2

equine serum albumin [6] = target: T6, equine serum albumin (equine, UniProt P35747 25-607); assay: binding ELISA, coated albumin, pH 7.4
Description: as §1, §2

canine serum albumin [7] = target: T2, canine serum albumin; assay: binding ELISA, coated albumin, pH 7.4
Description: as §1, §2

rabbit serum albumin = rabbit serum albumin (rabbit, UniProt P49065 25-608); assay: binding ELISA, coated albumin, pH 7.4
Description: as §1, §2

mouse serum albumin [8] = target: T5, mouse serum albumin; assay: binding ELISA, coated albumin, pH 7.4
Description: as §1, §2

porcine serum albumin [9] = target: T7, porcine serum albumin (porcine, UniProt P08835 25-607); assay: binding ELISA, coated albumin, pH 7.4
Description: as §1, §2

rat serum albumin [10] = target: T1, rat serum albumin; assay: binding ELISA, coated albumin, pH 7.4
Description: as §1, §2

human serum albumin [11] = target: T3, human serum albumin; assay: binding ELISA, coated albumin, pH 7.4
Description: as §1, §2

cynomolgus serum albumin [12] = target: T4, cynomolgus serum albumin; assay: binding ELISA, coated albumin, pH 7.4
Description: as §1, §2

porcine serum albumin [13] = target: T7, porcine serum albumin; assay: binding ELISA on coated albumin, pH 6.0, panel 'Porcine SA Binding at pH 6.0'
Description: as §1, §2

mouse serum albumin [14] = target: T5, mouse serum albumin; assay: Octet biolayer interferometry, biotinylated albumin on SA sensors, pH 6.0
Description: (§3) Biotinylated antigen was captured onto SA sensors at 1 μg/ml for 600 seconds in a buffer comprising PBS-T (0.01% Tween 20)+1% casein at either pH 6.0 or 7.4. Association was carried out for 300 seconds and dissociation for 600 seconds, and regeneration was performed using 10 mM glycine pH 1.5 (GE Healthcare) for 3×5 seconds. All steps were carried out at 1000 rpm and 25° C. Purified AFFIMER® polypeptide in two-fold serial dilutions was analyzed at a starting concentration of approximately 10× K_{D value}. Kinetics analyses were carried out using the Octet data analysis software, subtracting the reference sensor (loaded with antigen), aligning the Y-axis to baseline, and using inter-step correction to align association to dissociation. Savitzky-Golay filtering was applied and the data processed. Analysis of the data was carried out with a 1:1 model, global fit, Rₘₐₓ unlinked by sensor.

human serum albumin [15] = target: T3, human serum albumin; assay: as above
Description: as §3

cynomolgus serum albumin [16] = target: T4, cynomolgus serum albumin; assay: as above
Description: as §3

mouse serum albumin [17] = target: T5, mouse serum albumin; assay: BLI (Octet), biotinylated albumin on SA sensor, pH 6.0
Description: as §3

human serum albumin [18] = target: T3, human serum albumin; assay: as above
Description: as §3

cynomolgus serum albumin [19] = target: T4, cynomolgus serum albumin; assay: as above
Description: as §3

mouse serum albumin [20] = target: T5, mouse serum albumin; assay: BLI (Octet), biotinylated albumin on SA sensor, pH 7.4
Description: as §3

human serum albumin [21] = target: T3, human serum albumin; assay: as above
Description: as §3

cynomolgus serum albumin [22] = target: T4, cynomolgus serum albumin; assay: as above
Description: as §3

mouse serum albumin [23] = target: T5, mouse serum albumin; assay: Octet biolayer interferometry, biotinylated albumin on SA sensors, pH 7.4
Description: as §3

human serum albumin [24] = target: T3, human serum albumin; assay: as above
Description: as §3

cynomolgus serum albumin [25] = target: T4, cynomolgus serum albumin; assay: as above
Description: as §3

mouse serum albumin [26] = target: T5, mouse serum albumin; assay: SPR (Biacore T200), albumin amine-coupled to CM5, Affimer analyte, pH 7.4
Description: (§4) Affinities for mouse, human, and cynomolgus serum were also measured at pH 7.4 for four (4) AFFIMER® binders using surface plasmon resonance (SPR) (FIG. 5, Table 5). […] A concentration titration of AFFIMER® monomers was run as analyte at a flow rate of 30 μl/min or 60 μl/min. Fc2-1, Fc3-1 and Fc4-1 kinetic data was blank subtracted and fit to a 1:1 Langmuir binding model (BIAcore Evalution software; GE) to calculate KD values.

human serum albumin [27] = target: T3, human serum albumin; assay: as above
Description: as §4

cynomolgus serum albumin [28] = target: T4, cynomolgus serum albumin; assay: as above
Description: as §4

mouse serum albumin [29] = target: T5, mouse serum albumin; assay: Biacore, immobilised MSA, pH 6.0
Excerpt: (§5) […] Fc2-1, Fc3-1 and Fc4-1 kinetic data was blank subtracted and fit to a 1:1 Langmuir binding model (BIAcore Evalution software; GE) to calculate KD values.

human serum albumin [30] = target: T3, human serum albumin; assay: Biacore, immobilised HSA, running buffer pH 7.4
Description: as §4

equine serum albumin [31] = target: T6, equine serum albumin; assay: binding ELISA on coated albumin, pH 7.4, panel 'Equine SA Binding at pH 7.4' (Table 6 gives NA for this pair)
Description: as §1, §2

human serum albumin [32] = target: T3, human serum albumin; assay: Biacore, immobilised HSA, running buffer pH 6.0
Excerpt: as §5

human serum albumin [33] = target: T3, human serum albumin; assay: Biacore sensorgram on serum albumin (HSA)
mouse serum albumin [34] = target: T5, mouse serum albumin; assay: binding ELISA on coated MSA, pH 7.4
Description: (§6) After saturation with 5% PBS Casein pH 7.5, plates were washed and a dilution of AFFIMER® trimers or controls were incubated on the plate for 90 minutes. Plates were then washed, and a biotinylated polyclonal antibody anti-cystatin A (R&D Systems) was added for 1 hour. Plates were washed and AFFIMER® ILFs were detected using streptavidin-HRP. After a last washing step, TMB was added for the development of the experiment, and the plates were read at 450 nm.

human serum albumin [35] = target: T3, human serum albumin; assay: binding ELISA on coated HSA, pH 7.4
Description: as §6

[36] = target: T8, human PD-L1-Fc (R&D Systems) chimeric protein (human, UniProt Q9NZQ7 19-239); assay: Biacore single cycle kinetics on human PD-L1 Fc
T8 construct: Bought reagent; also called rhPD-L1-Fc; huPD-L1; Fc part of the bought chimera not given, not described
T8 sequence (Q9NZQ7 19-239, change not shown): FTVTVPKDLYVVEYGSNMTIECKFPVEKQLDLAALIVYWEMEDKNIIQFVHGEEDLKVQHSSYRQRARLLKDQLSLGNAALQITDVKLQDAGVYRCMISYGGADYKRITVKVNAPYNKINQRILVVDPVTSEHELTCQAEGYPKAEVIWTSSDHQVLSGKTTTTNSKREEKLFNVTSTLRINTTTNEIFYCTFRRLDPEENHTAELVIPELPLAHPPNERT

T7 sequence (P08835 25-607 limits assumed): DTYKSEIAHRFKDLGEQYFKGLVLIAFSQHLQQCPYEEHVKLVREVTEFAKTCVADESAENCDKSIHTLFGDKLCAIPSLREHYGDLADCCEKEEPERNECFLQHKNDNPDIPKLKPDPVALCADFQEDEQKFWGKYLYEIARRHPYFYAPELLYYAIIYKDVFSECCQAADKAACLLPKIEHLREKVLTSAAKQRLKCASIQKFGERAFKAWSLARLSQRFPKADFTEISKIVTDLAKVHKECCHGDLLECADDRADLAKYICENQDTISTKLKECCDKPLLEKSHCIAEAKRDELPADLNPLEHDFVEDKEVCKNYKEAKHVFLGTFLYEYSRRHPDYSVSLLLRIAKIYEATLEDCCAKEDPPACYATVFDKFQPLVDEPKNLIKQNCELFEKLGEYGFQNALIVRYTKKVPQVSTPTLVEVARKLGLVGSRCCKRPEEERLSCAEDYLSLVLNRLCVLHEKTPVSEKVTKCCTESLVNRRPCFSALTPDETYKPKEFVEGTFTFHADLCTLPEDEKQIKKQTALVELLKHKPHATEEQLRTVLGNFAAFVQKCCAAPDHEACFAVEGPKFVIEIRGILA
T4 sequence (A2V9Z4 25-608): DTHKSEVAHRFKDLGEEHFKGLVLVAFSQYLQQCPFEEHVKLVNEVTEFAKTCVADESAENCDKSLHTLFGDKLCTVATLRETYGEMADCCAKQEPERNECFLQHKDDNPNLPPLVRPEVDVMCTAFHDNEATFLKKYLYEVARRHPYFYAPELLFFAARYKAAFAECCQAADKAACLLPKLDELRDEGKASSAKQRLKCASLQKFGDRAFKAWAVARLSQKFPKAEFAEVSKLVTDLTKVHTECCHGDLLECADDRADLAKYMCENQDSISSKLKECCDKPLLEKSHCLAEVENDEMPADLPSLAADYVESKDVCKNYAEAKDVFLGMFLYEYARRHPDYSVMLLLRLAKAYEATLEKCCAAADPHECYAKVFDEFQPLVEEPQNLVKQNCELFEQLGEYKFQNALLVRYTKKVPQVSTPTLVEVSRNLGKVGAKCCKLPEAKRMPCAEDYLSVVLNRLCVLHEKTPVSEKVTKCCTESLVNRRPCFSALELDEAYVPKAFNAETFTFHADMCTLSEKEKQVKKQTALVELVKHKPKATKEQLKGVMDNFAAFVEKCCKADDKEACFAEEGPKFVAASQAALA
T2 sequence (P49822 25-608 limits assumed): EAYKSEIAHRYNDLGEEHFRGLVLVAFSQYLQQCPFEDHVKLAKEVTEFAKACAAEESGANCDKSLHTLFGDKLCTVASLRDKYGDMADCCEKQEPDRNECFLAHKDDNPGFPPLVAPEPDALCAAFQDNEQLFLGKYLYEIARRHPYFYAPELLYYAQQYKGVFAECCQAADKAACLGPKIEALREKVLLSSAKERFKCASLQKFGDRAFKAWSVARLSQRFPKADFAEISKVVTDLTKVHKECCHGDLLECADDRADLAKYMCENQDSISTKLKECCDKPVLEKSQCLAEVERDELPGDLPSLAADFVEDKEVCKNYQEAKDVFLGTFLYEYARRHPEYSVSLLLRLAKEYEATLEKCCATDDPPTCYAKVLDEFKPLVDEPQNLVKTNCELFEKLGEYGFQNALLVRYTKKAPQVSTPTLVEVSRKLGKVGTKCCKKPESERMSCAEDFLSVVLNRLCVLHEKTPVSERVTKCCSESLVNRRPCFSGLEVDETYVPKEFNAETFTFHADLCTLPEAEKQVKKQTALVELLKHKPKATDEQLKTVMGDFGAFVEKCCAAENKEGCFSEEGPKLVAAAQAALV
T5 sequence (P07724 25-608 limits assumed): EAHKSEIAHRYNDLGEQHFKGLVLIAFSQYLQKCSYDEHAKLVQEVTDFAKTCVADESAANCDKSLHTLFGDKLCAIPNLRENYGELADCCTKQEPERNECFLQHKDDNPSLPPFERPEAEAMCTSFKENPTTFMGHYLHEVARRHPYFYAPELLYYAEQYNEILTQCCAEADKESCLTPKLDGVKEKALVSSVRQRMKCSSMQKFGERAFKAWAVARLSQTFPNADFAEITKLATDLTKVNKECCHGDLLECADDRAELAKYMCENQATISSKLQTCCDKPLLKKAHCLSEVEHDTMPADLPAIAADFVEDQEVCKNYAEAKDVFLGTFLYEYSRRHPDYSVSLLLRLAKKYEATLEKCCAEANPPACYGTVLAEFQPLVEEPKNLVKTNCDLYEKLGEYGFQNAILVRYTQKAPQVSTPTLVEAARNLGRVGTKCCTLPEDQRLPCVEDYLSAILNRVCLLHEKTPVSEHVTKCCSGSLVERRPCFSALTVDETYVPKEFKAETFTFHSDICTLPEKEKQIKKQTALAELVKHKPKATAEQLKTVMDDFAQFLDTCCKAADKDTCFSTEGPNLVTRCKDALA
T1 sequence (P02770 25-608 limits assumed): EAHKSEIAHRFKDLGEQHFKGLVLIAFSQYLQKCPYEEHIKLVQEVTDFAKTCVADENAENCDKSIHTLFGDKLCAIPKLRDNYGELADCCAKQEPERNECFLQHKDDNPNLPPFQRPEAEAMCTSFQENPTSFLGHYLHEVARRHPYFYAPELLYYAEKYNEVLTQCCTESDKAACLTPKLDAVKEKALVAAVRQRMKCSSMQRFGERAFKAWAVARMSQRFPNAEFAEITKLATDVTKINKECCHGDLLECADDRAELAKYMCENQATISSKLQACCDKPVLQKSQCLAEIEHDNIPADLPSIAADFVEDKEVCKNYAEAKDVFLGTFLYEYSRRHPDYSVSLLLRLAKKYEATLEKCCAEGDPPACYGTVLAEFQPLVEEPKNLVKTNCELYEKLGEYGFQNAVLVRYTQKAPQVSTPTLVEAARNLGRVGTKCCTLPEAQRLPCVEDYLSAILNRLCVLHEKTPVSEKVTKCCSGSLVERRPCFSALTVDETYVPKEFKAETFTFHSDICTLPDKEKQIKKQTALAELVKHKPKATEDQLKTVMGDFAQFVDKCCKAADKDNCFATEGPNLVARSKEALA
T6 sequence (P35747 25-607 limits assumed): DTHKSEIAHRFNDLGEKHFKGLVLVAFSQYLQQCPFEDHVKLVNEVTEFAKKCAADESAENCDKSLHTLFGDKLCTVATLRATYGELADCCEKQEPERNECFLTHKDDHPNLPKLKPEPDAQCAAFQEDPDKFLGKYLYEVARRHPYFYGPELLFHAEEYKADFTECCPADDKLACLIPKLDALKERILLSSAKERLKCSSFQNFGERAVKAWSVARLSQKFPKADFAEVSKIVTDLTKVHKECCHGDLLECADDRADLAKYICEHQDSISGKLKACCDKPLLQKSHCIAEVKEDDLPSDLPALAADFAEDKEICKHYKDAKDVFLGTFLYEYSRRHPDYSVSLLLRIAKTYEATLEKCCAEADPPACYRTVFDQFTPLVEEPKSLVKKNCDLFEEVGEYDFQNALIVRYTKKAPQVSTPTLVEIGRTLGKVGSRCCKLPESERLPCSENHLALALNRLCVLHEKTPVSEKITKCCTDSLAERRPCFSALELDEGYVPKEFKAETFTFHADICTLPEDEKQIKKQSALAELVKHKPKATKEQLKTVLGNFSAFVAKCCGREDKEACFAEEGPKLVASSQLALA
Sequence of rabbit serum albumin (P49065 25-608 limits assumed): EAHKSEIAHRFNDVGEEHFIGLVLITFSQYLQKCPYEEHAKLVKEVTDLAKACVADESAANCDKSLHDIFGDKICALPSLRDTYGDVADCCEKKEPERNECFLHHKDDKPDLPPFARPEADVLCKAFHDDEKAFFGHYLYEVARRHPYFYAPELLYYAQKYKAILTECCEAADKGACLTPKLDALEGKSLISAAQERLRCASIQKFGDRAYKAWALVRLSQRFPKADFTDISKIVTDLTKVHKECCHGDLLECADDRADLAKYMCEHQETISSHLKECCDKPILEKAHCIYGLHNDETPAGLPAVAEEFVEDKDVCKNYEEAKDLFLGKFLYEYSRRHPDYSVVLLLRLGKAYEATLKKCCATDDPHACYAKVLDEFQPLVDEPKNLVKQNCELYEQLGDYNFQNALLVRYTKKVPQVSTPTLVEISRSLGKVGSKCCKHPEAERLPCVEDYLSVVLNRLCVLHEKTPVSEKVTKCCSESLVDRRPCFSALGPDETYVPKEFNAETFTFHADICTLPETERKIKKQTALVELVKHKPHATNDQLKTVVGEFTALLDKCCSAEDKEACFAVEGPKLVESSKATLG

B1: HSA-31 (designed binder)
chain: MIPRGLSEAKPATPEIQEIVDKVKPQLEEKTNETYGKLEAVQYKTQVLAVWGPEYQHQSTNYYIKVRAGDNKYMHLKVFNGPNAGWPLVPEADRVLTGYQVDKNKDDELTGFHHHHHH
- EC50 (read off the curve) (rat serum albumin [1]): ~0.04 nM
- EC50 (read off the curve) (canine serum albumin [2]): ~2 nM
- EC50 (read off the curve) (human serum albumin [3]): ~1 nM
- EC50 (read off the curve) (cynomolgus serum albumin [4]): ~0.6 nM
- EC50 (read off the curve) (mouse serum albumin [5]): ~0.06 nM
- EC50 (equine serum albumin [6]): 0.25 nM
- EC50 (canine serum albumin [7]): 3.17 nM
- EC50 (rabbit serum albumin): 211 nM
- EC50 (mouse serum albumin [8]): 0.03 nM
- EC50 (porcine serum albumin [9]): 2.6 nM
- EC50 (rat serum albumin [10]): 0.39 nM
- EC50 (human serum albumin [11]): 0.47 nM
- EC50 (cynomolgus serum albumin [12]): 0.43 nM
- EC50 (read off the curve) (porcine serum albumin [13]): ~9 nM
- kon (mouse serum albumin [14]): 166000 M⁻¹ s⁻¹
- koff (human serum albumin [15]): 0.00245 s⁻¹
- kon (human serum albumin [15]): 116000 M⁻¹ s⁻¹
- koff (cynomolgus serum albumin [16]): 0.00218 s⁻¹
- kon (cynomolgus serum albumin [16]): 118000 M⁻¹ s⁻¹
- Kd (mouse serum albumin [17]): 3.7 nM
- Kd (human serum albumin [18]): 21.1 nM
- Kd (cynomolgus serum albumin [19]): 18.5 nM
- Kd (mouse serum albumin [20]): 3.3 nM
- Kd (human serum albumin [21]): 15.3 nM
- Kd (cynomolgus serum albumin [22]): 83 nM
- koff (mouse serum albumin [23]): 0.000575 s⁻¹
- kon (mouse serum albumin [23]): 176000 M⁻¹ s⁻¹
- koff (human serum albumin [24]): 0.00317 s⁻¹
- kon (human serum albumin [24]): 208000 M⁻¹ s⁻¹
- koff (cynomolgus serum albumin [25]): 0.0037 s⁻¹
- kon (cynomolgus serum albumin [25]): 44600 M⁻¹ s⁻¹

B2: HSA-18 (designed binder)
chain: MIPRGLSEAKPATPEIQEIVDKVKPQLEEKTNETYGKLEAVQYKTQVLADWWQAKWPHSTNYYIKVRAGDNKYMHLKVFNGPYKVHQSSGGADRVLTGYQVDKNKDDELTGFHHHHHH
notes: also called HSA-18 monomer
- EC50 (read off the curve) (rat serum albumin [1]): ~3 nM
- EC50 (read off the curve) (canine serum albumin [2]): ~10 nM
- EC50 (read off the curve) (human serum albumin [3]): ~0.2 nM
- Kd (mouse serum albumin [26]): 2180 nM
- koff (mouse serum albumin [26]): 0.0742 s⁻¹
- kon (mouse serum albumin [26]): 34100 M⁻¹ s⁻¹
- Kd (human serum albumin [27]): 146 nM
- koff (human serum albumin [27]): 0.00789 s⁻¹
- kon (human serum albumin [27]): 54100 M⁻¹ s⁻¹
- Kd (cynomolgus serum albumin [28]): 542 nM
- koff (cynomolgus serum albumin [28]): 0.0261 s⁻¹
- kon (cynomolgus serum albumin [28]): 48300 M⁻¹ s⁻¹
- Kd (mouse serum albumin [29]): 49.4 nM
- koff (mouse serum albumin [29]): 0.0298 s⁻¹
- kon (mouse serum albumin [29]): 602000 M⁻¹ s⁻¹
- EC50 (read off the curve) (cynomolgus serum albumin [4]): ~0.1 nM
- Kd (human serum albumin [30]): 109 nM
- koff (human serum albumin [30]): 0.0078 s⁻¹
- kon (human serum albumin [30]): 71400 M⁻¹ s⁻¹
- binding result (equine serum albumin [31]): binds
- EC50 (canine serum albumin [7]): 96.5 nM
- EC50 (rabbit serum albumin): 847 nM
- EC50 (porcine serum albumin [9]): 615 nM
- EC50 (rat serum albumin [10]): 89.4 nM
- EC50 (human serum albumin [11]): 1.41 nM
- EC50 (cynomolgus serum albumin [12]): 7.14 nM
- Kd (human serum albumin [32]): 152 nM
- koff (human serum albumin [32]): 0.0122 s⁻¹
- kon (human serum albumin [32]): 80000 M⁻¹ s⁻¹
- Kd (mouse serum albumin [17]): 618 nM
- Kd (human serum albumin [18]): 17.9 nM
- Kd (cynomolgus serum albumin [19]): 68.7 nM
- Kd (mouse serum albumin [20]): 981 nM
- Kd (human serum albumin [21]): 36.1 nM
- Kd (cynomolgus serum albumin [22]): 106 nM

B3: HSA-41 x9 glycine loops (designed binder)
chain: MIPRGLSEAKPATPEIQEIVDKVKPQLEEKTNETYGKLEAVQYKTQVLANFFQRRWPGSTNYYIKVRAGDNKYMHLKVFNGPGGGGGGGGGADRVLTGYQVDKNKDDELTGFHHHHHH
notes: also called HSA-41 loop 4 replaced with 9 glycine residues; loop 4 knockout mutant
- binding result (human serum albumin [33]): no binding

B4: AVA04-251 XT61 (designed binder)
chain: MIPRGLSEAKPATPEIQEIVDKVKPQLEEKTNETYGKLEAVQYKTQVLAREGRQDWVLSTNYYIKVRAGDNKYMHLKVFNGPWVPFPHQQLADRVLTGYQVDKNKDDELTGFAEAAAKEAAAKEAAAKEAAAKEAAAKEAAAKMIPRGLSEAKPATPEIQEIVDKVKPQLEEKTNETYGKLEAVQYKTQVLADWWQAKWPHSTNYYIKVRAGDNKYMHLKVFNGPYKVHQSSGGADRVLTGYQVDKNKDDELTGFAEAAAKEAAAKEAAAKEAAAKEAAAKEAAAKMIPRGLSEAKPATPEIQEIVDKVKPQLEEKTNETYGKLEAVQYKTQVLAREGRQDWVLSTNYYIKVRAGDNKYMHLKVFNGPWVPFPHQQLADRVLTGYQVDKNKDDELTGFHHHHHH
- Kd (mouse serum albumin [29]): 113 nM
- koff (mouse serum albumin [29]): 0.0337 s⁻¹
- kon (mouse serum albumin [29]): 297000 M⁻¹ s⁻¹
- EC50 (mouse serum albumin [34]): 60.8 nM
- Kd (human serum albumin [30]): 325 nM
- koff (human serum albumin [30]): 0.00758 s⁻¹
- kon (human serum albumin [30]): 23300 M⁻¹ s⁻¹
- EC50 (human serum albumin [35]): 8.8 nM
- Kd (human serum albumin [32]): 31.1 nM
- koff (human serum albumin [32]): 0.00308 s⁻¹
- kon (human serum albumin [32]): 98800 M⁻¹ s⁻¹
- Kd [36]: 0.298 nM
- koff [36]: 0.000159 s⁻¹
- kon [36]: 534000 M⁻¹ s⁻¹

B5: HSA-41 loop 4 deletion (designed binder)
chain: MIPRGLSEAKPATPEIQEIVDKVKPQLEEKTNETYGKLEAVQYKTQVLANFFQRRWPGSTNYYIKVRAGDNKYMHLKVFNGPADRVLTGYQVDKNKDDELTGFHHHHHH
notes: also called loop 4 knockout mutant (deletion)
- binding result (human serum albumin [33]): no binding
